The values that follow come from patent US20060177829A1 (NEW YORK UNIVERSITY, published 2006).

The target of test [1] is T1, Flag-tagged β-TrCP2 (Fbw1b) (human, UniProt Q9UKB1 1-542).
T1 construct: F-box protein expressed from a Flag-tagged construct in HeLa cells; also called beta-TrCP2; not shown: Flag tag
T1 sequence: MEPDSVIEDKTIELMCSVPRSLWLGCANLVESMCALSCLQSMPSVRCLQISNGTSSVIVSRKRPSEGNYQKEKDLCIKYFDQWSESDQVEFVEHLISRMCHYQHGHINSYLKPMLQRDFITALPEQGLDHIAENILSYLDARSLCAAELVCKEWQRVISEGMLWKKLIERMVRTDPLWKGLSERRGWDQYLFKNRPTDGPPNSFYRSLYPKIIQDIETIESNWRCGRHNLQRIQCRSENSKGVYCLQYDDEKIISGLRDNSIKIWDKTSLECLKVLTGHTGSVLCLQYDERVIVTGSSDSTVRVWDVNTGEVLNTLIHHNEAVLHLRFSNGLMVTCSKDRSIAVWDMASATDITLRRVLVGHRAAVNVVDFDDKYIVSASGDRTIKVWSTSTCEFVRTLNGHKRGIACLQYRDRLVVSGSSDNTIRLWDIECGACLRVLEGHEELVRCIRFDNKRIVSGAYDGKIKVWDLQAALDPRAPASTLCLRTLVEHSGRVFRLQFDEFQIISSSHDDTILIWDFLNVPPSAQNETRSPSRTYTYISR
Briefly: anti-Flag immunoprecipitation from transfected HeLa cells, blot for Cdc25A. The text has this: (§1) FIG. 1. Cdc25A interacts with beta-TrCP1 and beta-TrCP2 in vivo (I). HeLa cells were transfected with the indicated Flag-tagged F-box protein constructs. F-box proteins were immunoprecipitated from extracts with an anti-Flag resin and immunocomplexes were blotted with Cul1, Cdc25A and Flag specific antibodies.

The target of test [2] is T2, Flag-tagged β-TrCP1 (Fbw1a) (human, UniProt Q9Y297 1-605).
T2 construct: F-box protein expressed from a Flag-tagged construct in HeLa cells and pulled down with anti-Flag resin; also called beta-TrCP1; Flag-beta-TrCP1; not shown: Flag tag
T2 sequence: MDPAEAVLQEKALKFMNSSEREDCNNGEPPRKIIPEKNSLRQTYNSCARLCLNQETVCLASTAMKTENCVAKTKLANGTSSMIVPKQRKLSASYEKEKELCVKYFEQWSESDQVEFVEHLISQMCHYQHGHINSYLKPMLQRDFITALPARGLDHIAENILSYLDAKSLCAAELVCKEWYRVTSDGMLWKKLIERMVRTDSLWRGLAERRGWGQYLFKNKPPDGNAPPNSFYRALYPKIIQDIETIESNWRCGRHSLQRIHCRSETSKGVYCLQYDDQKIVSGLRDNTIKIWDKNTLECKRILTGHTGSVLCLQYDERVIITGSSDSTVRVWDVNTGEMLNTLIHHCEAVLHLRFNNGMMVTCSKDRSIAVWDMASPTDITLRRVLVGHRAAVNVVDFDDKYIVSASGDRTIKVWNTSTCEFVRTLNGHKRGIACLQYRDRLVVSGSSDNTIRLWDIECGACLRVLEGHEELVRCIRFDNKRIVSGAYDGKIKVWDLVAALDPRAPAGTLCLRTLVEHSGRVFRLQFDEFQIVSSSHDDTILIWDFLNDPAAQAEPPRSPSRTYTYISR
The test is described as above.
From the text: as §1

Test [3] deals with T2, Flag-tagged β-TrCP1 (Fbw1a). Description: co-expression in HeLa cells, anti-Flag β-TrCP1 immunocomplexes blotted for Cdc25A.
The target in test [4] is T3, Flag-tagged Fbw7 (form not stated, FIG. 2) (human, UniProt Q969H0 1-707, limits assumed).
T3 construct: The Fbw7 of the parallel experiment with overexpressed Cdc25A; not shown: Flag tag
T3 sequence (Q969H0 whole entry): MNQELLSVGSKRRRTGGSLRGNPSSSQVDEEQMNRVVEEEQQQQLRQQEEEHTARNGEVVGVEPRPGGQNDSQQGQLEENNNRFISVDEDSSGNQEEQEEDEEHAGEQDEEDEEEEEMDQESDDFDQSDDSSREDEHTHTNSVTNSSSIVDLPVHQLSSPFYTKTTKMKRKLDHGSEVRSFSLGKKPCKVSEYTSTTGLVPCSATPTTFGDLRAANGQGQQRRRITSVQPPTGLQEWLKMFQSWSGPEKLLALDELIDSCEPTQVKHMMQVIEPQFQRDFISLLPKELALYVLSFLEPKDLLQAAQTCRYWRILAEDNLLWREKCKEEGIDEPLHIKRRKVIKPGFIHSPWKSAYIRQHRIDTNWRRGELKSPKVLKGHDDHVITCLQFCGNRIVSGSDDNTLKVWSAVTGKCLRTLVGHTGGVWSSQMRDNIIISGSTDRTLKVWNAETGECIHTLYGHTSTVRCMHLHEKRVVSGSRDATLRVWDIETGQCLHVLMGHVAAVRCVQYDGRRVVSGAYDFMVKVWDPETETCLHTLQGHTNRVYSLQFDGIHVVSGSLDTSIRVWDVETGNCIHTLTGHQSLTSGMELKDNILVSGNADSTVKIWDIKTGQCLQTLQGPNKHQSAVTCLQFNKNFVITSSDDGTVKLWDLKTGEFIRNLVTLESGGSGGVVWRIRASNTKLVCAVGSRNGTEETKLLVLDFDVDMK
Briefly: anti-Flag immunoprecipitation from HeLa cells co-transfected with His-Cdc25A, blot for Cdc25A.

For test [5], the target named is T1, Flag-tagged β-TrCP2 (Fbw1b). Described as above.
Test [6] addresses T4, Flag-tagged Skp2 (human, UniProt Q13309 1-424, limits assumed).
T4 construct: not shown: Flag tag
The test is described as above.

For test [7], the target named is T2, Flag-tagged β-TrCP1 (Fbw1a). The test is described as above.
For test [8], the target named is T5, β-TrCP1 (endogenous) (human, UniProt Q9Y297 1-605).
T5 construct: also called beta-TrCP
T5 sequence: T2 sequence
Briefly: Flag-tagged Cdc25A immunocomplexes blotted for β-TrCP1.

The target of test [9] is T6, Skp1 (endogenous) (human, UniProt P63208 2-163).
T6 construct: Human by the cell lines used
T6 sequence (P63208 2-163 limits assumed): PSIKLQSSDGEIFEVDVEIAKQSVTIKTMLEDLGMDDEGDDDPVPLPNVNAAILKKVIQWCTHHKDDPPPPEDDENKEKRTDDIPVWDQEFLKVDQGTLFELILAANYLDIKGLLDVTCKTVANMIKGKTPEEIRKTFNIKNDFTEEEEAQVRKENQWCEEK
Description: Flag-tagged Cdc25A immunocomplexes blotted for Skp1.

The target in test [10] is T7, Cul1 (endogenous) (human, UniProt Q13616 1-776).
T7 construct: Human by the cell lines used; also called Cul1 subunit
T7 sequence (Q13616 whole entry): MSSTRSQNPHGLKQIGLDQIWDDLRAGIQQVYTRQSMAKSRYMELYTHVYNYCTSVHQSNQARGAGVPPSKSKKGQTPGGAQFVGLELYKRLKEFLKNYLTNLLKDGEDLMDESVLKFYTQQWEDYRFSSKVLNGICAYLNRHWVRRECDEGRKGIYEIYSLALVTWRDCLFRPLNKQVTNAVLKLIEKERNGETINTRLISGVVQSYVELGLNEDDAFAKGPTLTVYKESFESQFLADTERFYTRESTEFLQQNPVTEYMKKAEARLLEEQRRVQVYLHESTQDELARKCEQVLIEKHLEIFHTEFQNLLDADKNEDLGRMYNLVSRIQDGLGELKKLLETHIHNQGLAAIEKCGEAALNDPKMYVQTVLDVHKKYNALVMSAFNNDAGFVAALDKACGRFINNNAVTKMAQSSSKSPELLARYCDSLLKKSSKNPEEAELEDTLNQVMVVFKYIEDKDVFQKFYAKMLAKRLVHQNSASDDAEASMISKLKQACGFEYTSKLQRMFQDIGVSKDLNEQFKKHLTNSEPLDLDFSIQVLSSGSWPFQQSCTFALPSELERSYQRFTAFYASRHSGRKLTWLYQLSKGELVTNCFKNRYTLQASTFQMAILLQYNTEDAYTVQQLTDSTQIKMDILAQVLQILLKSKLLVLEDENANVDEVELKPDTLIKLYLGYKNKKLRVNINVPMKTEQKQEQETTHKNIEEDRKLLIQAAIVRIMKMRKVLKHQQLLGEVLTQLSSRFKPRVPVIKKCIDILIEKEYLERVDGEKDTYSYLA
Briefly: Flag-tagged Cdc25A immunocomplexes blotted for Cul1.

Substitutions are numbered along the chain they refer to.

T4 sequence (Q13309 whole entry): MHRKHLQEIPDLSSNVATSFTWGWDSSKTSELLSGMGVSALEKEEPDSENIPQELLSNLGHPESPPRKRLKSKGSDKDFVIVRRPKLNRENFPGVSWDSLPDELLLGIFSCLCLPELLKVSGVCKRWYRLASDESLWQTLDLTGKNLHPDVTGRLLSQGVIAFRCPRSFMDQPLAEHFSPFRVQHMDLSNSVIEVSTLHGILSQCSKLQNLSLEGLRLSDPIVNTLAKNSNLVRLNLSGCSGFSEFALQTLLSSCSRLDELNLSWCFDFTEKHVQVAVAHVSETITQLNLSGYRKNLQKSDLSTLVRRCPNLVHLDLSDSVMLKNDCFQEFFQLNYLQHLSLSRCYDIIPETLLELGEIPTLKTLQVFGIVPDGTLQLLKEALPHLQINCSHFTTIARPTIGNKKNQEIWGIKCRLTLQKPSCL

B1: Cdc25A (endogenous, HeLa cells) (enzyme)
chain: MELGPSPAPRRLLFACSPPPASQPVVKALFGASAAGGLSPVTNLTVTMDQLQGLGSDYEQPLEVKNNSNLQRMGSSESTDSGFCLDSPGPLDSKENLENPMRRIHSLPQKLLGCSPALKRSHSDSLDHDIFQLIDPDENKENEAFEFKKPVRPVSRGCLHSHGLQEGKDLFTQRQNSAQLGMLSSNERDSSEPGNFIPLFTPQSPVTATLSDEDDGFVDLLDGENLKNEEETPSCMASLWTAPLVMRTTNLDNRCKLFDSPSLCSSSTRSVLKRPERSQEESPPGSTKRRKSMSGASPKESTNPEKAHETLHQSLSLASSPKGTIENILDNDPRDLIGDFSKGYLFHTVAGKHQDLKYISPEIMASVLNGKFANLIKEFVIIDCRYPYEYEGGHIKGAVNLHMEEEVEDFLLKKPIVPTDGKRVIVVFHCEFSSERGPRMCRYVRERDRLGNEYPKLHYPELYVLKGGYKEFFMKCQSYCEPPSYRPMHHEDFKEDLKKFRTKSRTWAGEKSKREMYSRLKKL
modifications: hyperphosphorylated in the form that co-precipitates with beta-TrCP (λ-phosphatase gave a faster migrating band); sites not mapped in that experiment
notes: also called cell division cycle 25A
B1: the binding result in test [1] and in test [2] was “binds” each time.

B2: His-tagged Cdc25A DSG2x (enzyme)
chain: B1 chain with S81A, S87A
notes: not shown: His tag
Take B2: the binding result in test [3] was “no binding”.

B3: His-Cdc25A (overexpressed wild type) (enzyme)
chain: B1 chain
notes: also called overexpressed Cdc25A; not shown: His tag
Turning to B3, the binding result in test [4] is given as “no binding”; in [5], “binds”; in test [6] it was “no binding”; in test [7] it was “binds”.

B4: Flag-tagged Cdc25A DSG2x (enzyme)
chain: B1 chain with S81A, S87A
notes: Point mutant of the full-length pCDNA3.1-Flag-Cdc25A construct; also called DSG2x mutated protein; DSG2x protein; not shown: Flag tag from pCDNA3.1-Flag vector
Turning to B4, the binding result in [8], in test [9] and in [10] was “no binding” in each case.

B5: His-tagged Cdc25A DSG3x (enzyme)
chain: B1 chain with S78A, S81A, S87A
notes: not shown: His tag
As for B5, the binding result in [3] is listed as “no binding”.
